Assay [1] concerns the target T1, recombinant human TIGIT (Human TIGIT His, Sino Biological, 10917-H08H) (human, UniProt Q495A1 22-138).
T1 construct: range 1-138; bought; also called hTIGIT
T1 sequence (looked up): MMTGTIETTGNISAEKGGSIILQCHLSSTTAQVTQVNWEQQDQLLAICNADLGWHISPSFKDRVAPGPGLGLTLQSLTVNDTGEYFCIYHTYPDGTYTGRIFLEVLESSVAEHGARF
The assay is described as follows: competition ELISA on recombinant human TIGIT, CD155 as competitor.

The target of assay [2] is T1, recombinant human TIGIT (Human TIGIT …). The assay is described as follows: BLI, antibody captured on anti-human Fc probe, TIGIT-His in solution.
For assay [3], the target named is T2, full-length human TIGIT expressed on CHO-K cell membrane (CHO-K-TIGIT) (human, UniProt Q495A1 22-244).
T2 construct: whole, on cells; also called CHO-TIGIT; membrane TIGIT
T2 sequence (looked up): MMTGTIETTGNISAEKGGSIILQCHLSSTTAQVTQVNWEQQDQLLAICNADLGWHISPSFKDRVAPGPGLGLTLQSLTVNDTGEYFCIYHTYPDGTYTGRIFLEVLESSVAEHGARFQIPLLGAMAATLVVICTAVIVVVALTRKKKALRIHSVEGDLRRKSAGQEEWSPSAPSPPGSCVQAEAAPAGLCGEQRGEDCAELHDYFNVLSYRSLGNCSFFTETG
The assay is described as follows: flow cytometry, CHO-TIGIT cells.

The target of assay [4] is T1, recombinant human TIGIT (Human TIGIT …). The assay is described as follows: ELISA, coated human TIGIT-His.
Assay [5] shares this target. The assay is described as follows: BLI, antibody captured on anti-human Fc probe, TIGIT-His in solution. This is another data set of the same source.

Read-outs that look alike come from different tables or passages of the source.

B1: humanized anti-human TIGIT monoclonal antibody P03477 (antibody, V domains shown)
VH: EVQVVESGGGLVKPGGSLRLSCAASGFTFSTYAMSWVRQAPGKGLEWVAEISSGGSHTFYSDTVTGRFTISRDNAKNTLYLQMNSLRAEDTAVYYCARKTLDYYALDYWGQGTTVTVSS
VL: DVQITQSPSSVSASVGDRVTINCRASKSISKYLAWYQQKPGKAPKLLIYSGSRLQSGVPSRFSGSGSGTDFTLTISSLQPEDFATYYCQQHNEYPWTFGGGTKLEIK
Turning to B1, the half-maximal inhibitory concentration (IC50) in assay [1] is 0.928 nM. Further, in assay [2], the Kd is 5.95 nM, the koff worked out at 0.00291 s⁻¹ and the kon came to 490000 M⁻¹ s⁻¹. Further, in assay [3], the response was half-maximal at 1.74 nM (EC50). The concentration for a half-maximal effect (EC50) in assay [4] came out at 0.194 nM.

B2: humanized anti-human TIGIT monoclonal antibody P03481 (antibody, V domains shown)
VH: EVQVVESGGGLVKPGGSLRLSCAASGFTFSTYAMSWVRQAPGKGLEWVAEISSGGSHTFYADTVKGRFTISRDNAKNTLYLQMNSLRAEDTAVYYCARKTLDYYALDYWGQGTTVTVSS
VL: DIQMTQSPSSVSASVGDRVTITCRASKSISKYLAWYQQKPGKAPKLLIYSGSRLQSGVPSRFSGSGSGTDFTLTISSLQPEDFATYYCQQHNEYPWTFGGGTKLEIK
Turning to B2, in assay [1], the IC50 stood at 0.62 nM. In addition, in assay [2], the Kd worked out at 10 nM, the off-rate (koff) came to 0.00666 s⁻¹ and the kon was 665000 M⁻¹ s⁻¹. The molecule further returned an EC50 in assay [3] of 2.82 nM. The EC50 in assay [4] turned out to be 0.122 nM.

B3: humanized anti-human TIGIT monoclonal antibody P03476 (antibody, V domains shown)
VH: EVQVVESGGGLVKPGGSLRLSCAASGFTFSTYAMSWVRQAPGKGLEWVAEISSGGSHTFYSDTVTGRFTISRDNAKNTLYLQMNSLRAEDTAVYYCARKTLDYYALDYWGQGTTVTVSS
VL: DVQITQSPSYLSASVGDRVTINCRASKSISKYLAWYQQKPGKAPKLLIYSGSRLQSGIPSRFSGSGYGTDFTLTISSLQPEDFATYYCQQHNEYPWTFGGGTKLEIK
B3: the IC50 in assay [1] stood at 1.32 nM. In assay [2], the Kd came to 7.92 nM, the off-rate (koff) is 0.00483 s⁻¹ and the kon is 610000 M⁻¹ s⁻¹. Moreover, the EC50 in assay [3] worked out at 1.52 nM. Further, the EC50 in assay [4] was 0.221 nM.

B4: humanized anti-human TIGIT monoclonal antibody P03482 (antibody, V domains shown)
VH: EVQLVESGGGLVKPGGSLRLSCAASGFTFSTYAMSWVRQAPGKGLEWVAEISSGGSHTFYADTVTGRFTISRDNAKNTLYLQMNSLRAEDTAVYYCARKTLDYYALDYWGQGTTVTVSS
VL: DVQITQSPSYLSASVGDRVTINCRASKSISKYLAWYQQKPGKAPKLLIYSGSRLQSGIPSRFSGSGYGTDFTLTISSLQPEDFATYYCQQHNEYPWTFGGGTKLEIK
In the case of B4, in assay [1], the IC50 was 0.791 nM. In addition, in assay [2], the Kd was 6.15 nM, the koff is 0.00406 s⁻¹ and the kon was 661000 M⁻¹ s⁻¹. This molecule came in with a concentration for a half-maximal effect (EC50) in assay [3] of 2.38 nM. The EC50 in assay [4] is 0.182 nM.

B5: humanized anti-human TIGIT monoclonal antibody P03484 (antibody, V domains shown)
VH: EVQLVESGGGLVKPGGSLRLSCAASGFTFSTYAMSWVRQAPGKGLEWVAEISSGGSHTFYADTVTGRFTISRDNAKNTLYLQMNSLRAEDTAVYYCARKTLDYYALDYWGQGTTVTVSS
VL: DIQMTQSPSSVSASVGDRVTITCRASKSISKYLAWYQQKPGKAPKLLIYSGSRLQSGVPSRFSGSGSGTDFTLTISSLQPEDFATYYCQQHNEYPWTFGGGTKLEIK
As for B5, the IC50 in assay [1] came to 1.29 nM. Also, in assay [2], the Kd was found to be 9.15 nM, the koff came to 0.00639 s⁻¹ and the kon is 699000 M⁻¹ s⁻¹. The EC50 in assay [4] worked out at 0.187 nM.

B6: humanized anti-human TIGIT monoclonal antibody P04664 (antibody, V domains shown)
VH: EVQVVESGGGLVKPGGSLRLSCAASGFTFSTYAMSWVRQAPEQRLEWVAEISSGGSHTFYSDTVTGRFTISRDNAKNTLYLQMNSLRAEDTAVYYCARKTLDYYALDYWGQGTTVTVSS
VL: DVQITQSPSSVSASVGETITINCRASKSISKYLAWYQQKPGKAPKLLIYSGSRLQSGVPSRFSGSGSGTDFTLTISSLQPEDFATYYCQQHNEYPWTFGGGTKLEIK
As for B6, in assay [2], the dissociation constant (Kd) stood at 2.73 nM, the koff came out at 0.00391 s⁻¹ and the kon is 1.43e+06 M⁻¹ s⁻¹.

B7: humanized anti-human TIGIT monoclonal antibody P03478 (antibody, V domains shown)
VH: EVQVVESGGGLVKPGGSLRLSCAASGFTFSTYAMSWVRQAPGKGLEWVAEISSGGSHTFYSDTVTGRFTISRDNAKNTLYLQMNSLRAEDTAVYYCARKTLDYYALDYWGQGTTVTVSS
VL: DIQMTQSPSSVSASVGDRVTITCRASKSISKYLAWYQQKPGKAPKLLIYSGSRLQSGVPSRFSGSGSGTDFTLTISSLQPEDFATYYCQQHNEYPWTFGGGTKLEIK
B7: in assay [1], the IC50 was determined as 0.989 nM. Moreover, in assay [2], the Kd was determined as 10.1 nM, the koff was found to be 0.00714 s⁻¹ and the association rate constant (kon) was found to be 707000 M⁻¹ s⁻¹. The molecule also came in with an EC50 in assay [3] of 2.58 nM. Further, in assay [4], the EC50 stood at 0.161 nM.

B8: humanized anti-human TIGIT monoclonal antibody P03483 (antibody, V domains shown)
VH: EVQLVESGGGLVKPGGSLRLSCAASGFTFSTYAMSWVRQAPGKGLEWVAEISSGGSHTFYADTVTGRFTISRDNAKNTLYLQMNSLRAEDTAVYYCARKTLDYYALDYWGQGTTVTVSS
VL: DVQITQSPSSVSASVGDRVTINCRASKSISKYLAWYQQKPGKAPKLLIYSGSRLQSGVPSRFSGSGSGTDFTLTISSLQPEDFATYYCQQHNEYPWTFGGGTKLEIK
As to B8, in assay [1], the IC50 came to 0.836 nM. In addition, in assay [2], the Kd came to 7.77 nM, the koff was 0.0046 s⁻¹ and the kon came to 592000 M⁻¹ s⁻¹. Besides, in assay [3], the EC50 is 2.61 nM. In addition, in assay [4], the EC50 amounted to 0.212 nM.

B9: humanized anti-human TIGIT monoclonal antibody P03480 (antibody, V domains shown)
VH: EVQVVESGGGLVKPGGSLRLSCAASGFTFSTYAMSWVRQAPGKGLEWVAEISSGGSHTFYADTVKGRFTISRDNAKNTLYLQMNSLRAEDTAVYYCARKTLDYYALDYWGQGTTVTVSS
VL: DVQITQSPSSVSASVGDRVTINCRASKSISKYLAWYQQKPGKAPKLLIYSGSRLQSGVPSRFSGSGSGTDFTLTISSLQPEDFATYYCQQHNEYPWTFGGGTKLEIK
As for B9, the concentration for half-maximal inhibition (IC50) in assay [1] is 1.24 nM. Further, in assay [2], the Kd turned out to be 6.67 nM, the koff was 0.00404 s⁻¹ and the kon was 605000 M⁻¹ s⁻¹. In assay [3], this molecule gave an EC50 of 2.19 nM. Moreover, the EC50 in assay [4] came out at 0.252 nM.

B10: humanized anti-human TIGIT monoclonal antibody P03488 (antibody, V domains shown)
VH: QVQLVQSGAEVKKPGASVKVSCKASGYTFISYNIYWVRQAPGQGLEWIGGVNPSNGNTNFNENFKGRVTLTVDTSISTAYMELSRLRSDDTAVYYCTRGNYYGYEFAYWGQGTTVTVSS
VL: DIQMTQSPSSMSASVGDRVTITCKASQHVSTAVAWYQQKPGKAPKLLIYSPSYRYTGVPSRFSGSGSGTDFTFTISSVQPEDIATYYCQQHYSTPWTFGGGTKLEIK
As to B10, in assay [5], the equilibrium dissociation constant (Kd) stood at 1.02 nM, the koff was 0.000519 s⁻¹ and the on-rate (kon) worked out at 511000 M⁻¹ s⁻¹.

B11: humanized anti-human TIGIT monoclonal antibody P03489 (antibody, V domains shown)
VH: QVQLVQSGAEVKKPGASVKVSCKASGYTFISYNIYWVRQAPGQGLEWMGGVNPSNGNTNFNENFQGRVTMTVDTSISTAYMELSRLRSDDTAVYYCTRGNYYGYEFAYWGQGTTVTVSS
VL: DIQMTQSPSSMSASVGDRVTITCKASQHVSTAVAWYQQKPGKAPKLLIYSPSYRYTGVPSRFSGSGSGTDFTFTISSVQPEDIATYYCQQHYSTPWTFGGGTKLEIK
Take B11: the midpoint of the response in assay [3], the EC50, lay at 0.761 nM. For the same molecule, in assay [5], the Kd came to 1.19 nM, the koff is 0.000584 s⁻¹ and the on-rate (kon) turned out to be 489000 M⁻¹ s⁻¹.

For the origin of these results see patent US20240417462A1 (SHANGHAI CELGEN BIO PHARMACEUTICAL, published 2024).
